From patent publication US20240400677A1 (ELECTRA THERAPEUTICS, published 2024)

T1: Cynomolgus Monkey SIRPγ (plate-coated extracellular domain)
T1 construct: also called Cyno SIRPγ
T1 extracellular domain: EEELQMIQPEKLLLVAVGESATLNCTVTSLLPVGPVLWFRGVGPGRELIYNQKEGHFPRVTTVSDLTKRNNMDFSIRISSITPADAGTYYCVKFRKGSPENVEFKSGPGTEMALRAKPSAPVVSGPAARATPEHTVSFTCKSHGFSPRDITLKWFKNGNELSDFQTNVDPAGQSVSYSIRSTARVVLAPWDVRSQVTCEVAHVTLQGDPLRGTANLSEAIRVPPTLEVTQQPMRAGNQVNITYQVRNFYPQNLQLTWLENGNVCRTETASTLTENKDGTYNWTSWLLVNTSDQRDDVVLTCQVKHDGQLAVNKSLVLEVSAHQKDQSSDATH

T2: cynomolgus monkey SIRPα on CHO cells (cynomolgus monkey, UniProt A0A2K5VYQ9 31-507)
T2 construct: whole, on cells; also called Cyno SIRPα CHO
T2 sequence: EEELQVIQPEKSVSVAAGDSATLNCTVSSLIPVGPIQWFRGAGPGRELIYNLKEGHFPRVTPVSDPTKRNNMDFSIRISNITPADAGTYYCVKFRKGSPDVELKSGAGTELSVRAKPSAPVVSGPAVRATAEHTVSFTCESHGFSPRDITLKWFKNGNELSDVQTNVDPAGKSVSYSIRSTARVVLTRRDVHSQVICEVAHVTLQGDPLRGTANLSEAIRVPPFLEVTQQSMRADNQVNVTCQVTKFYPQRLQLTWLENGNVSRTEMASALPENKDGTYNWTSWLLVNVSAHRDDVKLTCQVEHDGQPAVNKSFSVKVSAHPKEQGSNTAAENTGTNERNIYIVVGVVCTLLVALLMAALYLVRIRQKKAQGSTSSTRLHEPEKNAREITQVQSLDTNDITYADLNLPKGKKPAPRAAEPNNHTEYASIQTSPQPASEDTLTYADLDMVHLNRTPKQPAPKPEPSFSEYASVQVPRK

T3: cynomolgus monkey SIRPγ on CHO cells (cynomolgus monkey, UniProt Q9P1W8 29-386 (human entry))
T3 construct: also called Cyno SIRPγ CHO
T3 chain: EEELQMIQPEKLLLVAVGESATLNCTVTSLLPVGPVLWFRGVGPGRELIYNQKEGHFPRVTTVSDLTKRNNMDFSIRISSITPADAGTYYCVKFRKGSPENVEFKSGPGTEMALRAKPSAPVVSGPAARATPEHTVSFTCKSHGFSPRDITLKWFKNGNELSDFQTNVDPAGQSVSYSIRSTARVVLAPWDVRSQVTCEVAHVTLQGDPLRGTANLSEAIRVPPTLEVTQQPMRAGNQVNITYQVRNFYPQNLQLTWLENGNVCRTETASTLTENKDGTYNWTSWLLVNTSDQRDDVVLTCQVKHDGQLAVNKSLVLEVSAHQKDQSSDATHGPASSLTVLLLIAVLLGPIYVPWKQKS

T4: cynomolgus monkey SIRPγ-His monomer protein (cynomolgus monkey, UniProt Q9P1W8 29-359 (human entry), limits assumed)
T4 construct: also called Cyno SIRPγ; Cyno SIRPγ-His
T4 chain: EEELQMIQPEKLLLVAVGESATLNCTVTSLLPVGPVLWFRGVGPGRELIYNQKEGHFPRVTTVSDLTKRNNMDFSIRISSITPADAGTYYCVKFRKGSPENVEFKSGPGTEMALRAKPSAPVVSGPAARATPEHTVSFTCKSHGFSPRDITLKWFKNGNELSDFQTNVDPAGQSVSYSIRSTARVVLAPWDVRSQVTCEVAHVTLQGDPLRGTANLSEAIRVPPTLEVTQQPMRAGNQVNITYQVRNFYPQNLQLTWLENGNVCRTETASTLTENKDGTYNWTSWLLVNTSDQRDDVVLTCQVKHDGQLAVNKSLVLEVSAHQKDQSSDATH


Legend:
[1] = target: T5, extracellular binding domain of human SIRPγ (plate-coated) (human, UniProt Q9P1W8 29-360); experiment: ELISA, coated SIRP ECD (2 µg/mL), anti-human IgG, luminescence
T5 construct: also called hSIRPγ
T5 sequence (Q9P1W8 29-360 limits assumed): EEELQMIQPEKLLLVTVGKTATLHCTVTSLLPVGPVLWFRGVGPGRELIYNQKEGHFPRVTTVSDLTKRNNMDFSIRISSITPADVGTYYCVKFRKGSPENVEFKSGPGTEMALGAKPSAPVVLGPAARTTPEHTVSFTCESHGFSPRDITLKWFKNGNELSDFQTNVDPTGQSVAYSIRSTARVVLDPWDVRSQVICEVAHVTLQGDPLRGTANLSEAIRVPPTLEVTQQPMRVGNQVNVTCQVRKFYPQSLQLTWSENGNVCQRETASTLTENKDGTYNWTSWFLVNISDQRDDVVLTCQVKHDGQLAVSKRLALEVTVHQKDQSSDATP
Experimental: (§1) Selected hybridoma supernatants of Example 1 were tested for binding to human SIRPγ, cynomolgus monkey SIRPγ, human SIRPα V1, cynomolgus monkey SIRPα, human SIRPβ1, and cynomolgus monkey SIRPβ1 by enzyme-linked immunosorbent assay (ELISA). Briefly, 2 μg/mL of the extracellular domain of SIRP protein was coated onto high protein-binding plates and blocked. Undiluted supernatants were added to coated plates. The antibodies were detected by an anti-rat antibody and a chemiluminescent substrate. […] The data depict the relative luminescence units read by a plate-reader capable of detecting chemiluminescence.
(§2) FIGS. 2A-2G show binding curves of SIRPγ antibodies and human Fc isotype controls to human SIRPγ, cynomolgus monkey SIRPγ, human SIRPα V1, human SIRPα V2, and human SIRPβ1 by ELISA. […] Isotype control 2 was an unrelated human IgG1 antibody with irrelevant CDRs with no modifications in the Fc region. DNA was transiently transfected into Expi293F cells for 5 days. Antibodies were purified by Protein A from cell supernatants and analyzed in a titration via ELISA as previously described in FIG. 1 using an anti-human IgG antibody as the detection antibody.

[2] = target: T1, Cynomolgus Monkey SIRPγ (plate-coated …); experiment: as above
Experimental: as §1, §2

[3] = target: T6, human SIRPβ1 on CHO cells (co-transfected with DAP12) (human, UniProt O00241 30-398); experiment: flow cytometry, CHO transfectants, anti-human IgG
T6 construct: whole, on cells; co-transfected with DAP12; also called Human SIRPβ1 CHO
T6 sequence (O00241 30-398): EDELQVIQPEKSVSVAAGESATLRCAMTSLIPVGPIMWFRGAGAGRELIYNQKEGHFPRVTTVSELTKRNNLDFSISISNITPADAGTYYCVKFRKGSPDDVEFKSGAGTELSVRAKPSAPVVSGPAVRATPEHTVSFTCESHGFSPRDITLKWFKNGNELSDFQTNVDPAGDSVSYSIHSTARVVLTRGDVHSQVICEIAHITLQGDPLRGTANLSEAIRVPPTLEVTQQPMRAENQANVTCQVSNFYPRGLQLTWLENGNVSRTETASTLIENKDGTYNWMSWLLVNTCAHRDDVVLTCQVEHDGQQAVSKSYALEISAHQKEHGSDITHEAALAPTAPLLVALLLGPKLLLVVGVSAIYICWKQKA
Procedure, shortened: (§3)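 The CHO lines were stably transfected, with SIRPβ1 co-transfected with DAP12 where present. Titrated antibody was detected by labelled anti-human IgG and scored as MFI. The myc-scFv PPE was screened on these lines and on CHO-K1 parental cells, and fold change <2.0 was classed as non-binder.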

[4] = target: T2, cynomolgus monkey SIRPα on CHO cells; experiment: flow cytometry, CHO transfectants, anti-human IgG
Procedure, shortened: as §3

[5] = target: T3, cynomolgus monkey SIRPγ on CHO cells; experiment: flow cytometry, CHO transfectants, anti-human IgG
Procedure, shortened: as §3

[6] = target: T7, bivalent human SIRPγ protein with mouse Fc (human, UniProt Q9P1W8 29-360); experiment: BLI Octet, antibody on AHC, global 1:2 model
T7 construct: also called Human SIRPγ-mFc
T7 sequence (Q9P1W8 29-360 limits assumed): as the sequence (Q9P1W8 29-360 limits assumed) above
Experimental: (§4) Antibodies were coated onto anti-human Fc capture (AHC) biosensors. SIRP-His monomer protein or bivalent SIRP protein with mouse Fc at four concentrations (200 nM, 100 nM, 50 nM, 25 nM) were exposed to the biosensor to measure on-rate kinetics of SIRP antibodies binding to SIRP protein. The biosensors were then exposed to wash buffer to measure off-rate kinetics. The resulting kinetic data were analyzed and fitted using a global 1:2 binding model.

[7] = target: T8, human SIRPγ-His monomer protein (human, UniProt Q9P1W8 29-360); experiment: BLI Octet, antibody on AHC, global 1:2 model
T8 construct: also called hSIRPγ
T8 sequence (Q9P1W8 29-360 limits assumed): as above
Experimental: as §4

[8] = target: T4, cynomolgus monkey SIRPγ-His monomer …; experiment: BLI Octet, antibody on AHC, global 1:2 model
Experimental: as §4

[9] = target: T9, human SIRPγ on stably transfected CHO cells (human, UniProt Q9P1W8 29-387); experiment: flow cytometry, CHO transfectants, anti-human IgG
T9 construct: also called Human SIRPγ CHO
T9 sequence (Q9P1W8 29-387 limits assumed): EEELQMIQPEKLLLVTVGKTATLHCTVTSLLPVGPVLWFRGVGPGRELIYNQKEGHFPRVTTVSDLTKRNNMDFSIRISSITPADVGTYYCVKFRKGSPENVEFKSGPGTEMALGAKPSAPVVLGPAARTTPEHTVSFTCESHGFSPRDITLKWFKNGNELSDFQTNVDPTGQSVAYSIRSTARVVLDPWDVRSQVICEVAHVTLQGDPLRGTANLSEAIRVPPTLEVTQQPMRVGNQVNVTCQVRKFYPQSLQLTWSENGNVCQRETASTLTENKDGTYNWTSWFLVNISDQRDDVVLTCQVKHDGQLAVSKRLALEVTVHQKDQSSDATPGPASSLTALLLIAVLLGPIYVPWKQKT
Procedure, shortened: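 CHO cells stably transfected with human SIRPγ, SIRPαV1 or SIRPβ1 (co-transfected with DAP12) were incubated with antibody titrations, with binding read by flow cytometry as median fluorescence intensity via labelled anti-rat or anti-human IgG secondary. Myc-tagged scFv crude PPE was also incubated with each line plus parental CHO-K1; fold change <2.0 = non-binder.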

| Binder | EC50 (read off the curve) [1] [µg/mL] | EC50 (read off the curve) [2] [µg/mL] | binding result [3] | binding result [4] | EC50 (read off the curve) [5] [µg/mL] | Kd [6] [nM] | Kd [7] [nM] | Kd [8] [nM] | EC50 (read off the curve) [9] [µg/mL] |
| --- | --- | --- | --- | --- | --- | --- | --- | --- | --- |
| Antibody 82 (antibody, V domains shown) VH: QVQLVQSGAEVKKPGASVKVSCKASGHTFNNNYIHWVRQAPGQGLEWMGIINPSGGSTSYAQKFQGRVTMTRDTSTSTVYMELSSLRSEDTAVYYCARQIQDYGYYYYGMDVWGQGTTVTVSS VL: EIVMTQSPATLSVSPGERATLSCRASQSVSKYLAWYQQKPGQAPRLLIYAISARAAGIPARFSGSGSGTEFTLTISSLQSEDFAVYYCQQYYSSPPTFGQGTKVEIK | ~0.01 | ~0.03 | no binding (tested: about 20 µg/mL) | no binding (tested: about 20 µg/mL) | ~0.7 |  |  |  |  |
| Antibody 86 (antibody, V domains shown) VH: EVQLLESGGGLVQPGGSLRLSCAASGFTLGSYWMHWVRQAPGKGLEWVSLISWDGGSTYYADSVKGRFTISRDNSKNTLYLQMNSLRAEDTAVYYCAKGPWVGYSGYDLNYYYYGMDVWGQGTTVTVSS VL: DIQMTQSPSSLSASVGDRVTITCRASQDIRRALAWYQQKPGKAPKLLIYAASSLQSGVPSRFSGSGSGTDFTLTISSLQPEDFATYYCLQHNSYPPTFGQGTKLEIK |  |  |  |  |  | 3.92 | 56.1 | 48.2 |  |
| Antibody 89 (antibody, V domains shown) VH: QVQLVQSGAEVKKPGASVKVSCKASGGTFSSYAISWVRQAPGQGLEWMGIINPSSSSTGYAQKFQGRVTMTRDTSTSTVYMELSSLRSEDTAVYYCARAGYYDSSGYYYSPYYGMDVWGQGTTVTVSS VL: EIVMTQSPATLSVSPGERATLSCRASQSISGSYLAWYQQKPGQAPRLLIYGASTRATGIPARFSGSGSGTEFTLTISSLQSEDFAVYYCQQYGSFPFTFGPGTKVDIK | ~0.3 | ~0.2 | no binding (tested: about 30 µg/mL) | no binding (tested: about 30 µg/mL) |  | 1320 | 297 | 26.2 |  |
| Antibody 73 (antibody, V domains shown) VH: QVQLVQSGAEVKKPGASVKVSCKASGGTFSSYDINWVRQAPGQGLEWMGWMNPNSGNTGYAQKFQGRVTMTRDTSTSTVYMELSSLRSEDTAVYYCARDLTLYCSSTSCLDAFDYWGQGTLVTVSS VL: not shown | ~0.03 | ~0.05 | no binding (tested: about 20 µg/mL) | no binding (tested: about 20 µg/mL) |  |  |  |  | ~0.5 |
| Antibody 85 (antibody, V domains shown) VH: QVQLVQSGAEVKKPGASVKVSCKASGYTFTSYDINWVRQAPGQGLEWMGWMNPNSGNTGYAQKFQGRVTMTRDTSTSTVYMELSSLRSEDTAVYYCARESYAYCSSTSCYDAFDIWGQGTMVTVSS VL: not shown |  |  | no binding (tested: about 30 µg/mL) | no binding (tested: about 30 µg/mL) |  | 35.6 | 96.9 | 96.1 |  |
| Antibody 92 (antibody, V domains shown) VH: QVQLVQSGAEVKKPGASVKVSCKASGGTFSSYDINWVRQAPGQGLEWMGWMNPNSGNTGYAQKFQGRVTMTRDTSTSTVYMELSSLRSEDTAVYYCARDLTLYCSSTSCLDAFDYWGQGTLVTVSS VL: not shown |  |  | no binding (tested: about 30 µg/mL) | no binding (tested: about 30 µg/mL) |  | 9.03 | 12.3 | 2960 |  |
| Antibody 71 (antibody, V domains shown) VH: QVQLVQSGAEVKKPGASVKVSCKASGYTFTSYYIHWVRQAPGQGLEWMGTINPSGGSTSYAQKFQGRVTMTRDTSTSTVYMELSSLRSEDTAVYYCARETSRWLRDYYYGMDVWGQGTTVTVSS VL: DIVMTQSPLSLPVTPGEPASISCRSSQSLLHSNGYNYLDWYLQKPGQSPQLLIYDASSLESGVPDRFSGSGSGTDFTLKISRVEAEDVGVYYCMQGTHWPLTFGGGTKVEIK | ~0.02 | ~0.02 |  | no binding (tested: about 20 µg/mL) |  |  |  |  | ~0.1 |
| Antibody 57 (antibody, V domains shown) VH: QVQLVQSGAEVKKPGASVKVSCKASGYTFTSYYMHWVRQAPGQGLEWMGWINPNSGNAGFAQKFQGRVTMTRDTSTSTVYMELSSLRSEDTAVYYCARGPVYSYGPFDYWGQGTLVTVSS VL: DIQMTQSPSSLSASVGDRVTITCRASQGISTYLAWYQQKPGKAPKLLIYAASTLQSGVPSRFSGSGSGTDFTLTISSLQPEDFATYYCQQSHSAPITFGQGTKVEIK |  |  | no binding (tested: about 20 µg/mL) | no binding (tested: about 20 µg/mL) | ~0.4 |  |  |  | ~0.6 |
| Antibody 79 (antibody, V domains shown) VH: QVQLVQSGAEVKKPGASVKVSCKASGYTFTSYYMHWVRQAPGQGLEWMGWMNPNSGNTGYAQKFQGRVTMTRDTSTSTVYMELSSLRSEDTAVYYCARDQMYSSYGMDVWGQGTTVTVSS VL: DIQMTQSPSSLSASVGDRVTITCRASESITNWLAWYQQKPGKAPKLLIYKASSLESGVPSRFSGSGSGTDFTLTISSLQPEDFATYYCQQSYGTPYTFGQGTKVEIK | ~0.03 | ~0.06 | no binding (tested: about 20 µg/mL) | no binding (tested: about 20 µg/mL) | ~0.5 |  |  |  |  |
